Here are results for three molecules from article PMC11914300, “Immediate early splicing controls translation in activated T-cells and is mediated by hnRNPC2 phosphorylation”.

Conditions in all cases: protein: recombinant; tags: N-terminal Twin-Strep-SUMO, removed with PreScission protease; chain copies: 4; label: 5' 32P
The target of series [1] is T1, hnRNPC2 WT (UniProt P07910 1-306). Briefly: EMSA; 0-10 uM protein, 10 pmol RNA; EMSA: 20 mM Tris-HCl pH 8.0, 0.25 M NaCl, 1 mM DTT, 10% glycerol, 0.2 mM EDTA; 37 C, 20 min; 5% polyacrylamide gel. (Mobility shift assays separate free from complexed probe on a gel.)
Series [2] concerns the target T1, hnRNPC2 WT. The series is described as follows: EMSA; 0-2000 nM protein, 10 pmol RNA; higher affinity than intron RNAs; EMSA: 20 mM Tris-HCl pH 8.0, 0.25 M NaCl, 1 mM DTT, 10% glycerol, 0.2 mM EDTA; 37 C, 20 min; 5% polyacrylamide gel.
The target of series [3] is hnRNPC2 S115D (UniProt P07910 1-306, S115D). The series is described as follows: EMSA; 0-2000 nM protein, 10 pmol RNA; no difference from WT; EMSA: 20 mM Tris-HCl pH 8.0, 0.25 M NaCl, 1 mM DTT, 10% glycerol, 0.2 mM EDTA; 37 C, 20 min; 5% polyacrylamide gel.
Chain of hnRNPC2 S115D (P07910 whole entry S115D): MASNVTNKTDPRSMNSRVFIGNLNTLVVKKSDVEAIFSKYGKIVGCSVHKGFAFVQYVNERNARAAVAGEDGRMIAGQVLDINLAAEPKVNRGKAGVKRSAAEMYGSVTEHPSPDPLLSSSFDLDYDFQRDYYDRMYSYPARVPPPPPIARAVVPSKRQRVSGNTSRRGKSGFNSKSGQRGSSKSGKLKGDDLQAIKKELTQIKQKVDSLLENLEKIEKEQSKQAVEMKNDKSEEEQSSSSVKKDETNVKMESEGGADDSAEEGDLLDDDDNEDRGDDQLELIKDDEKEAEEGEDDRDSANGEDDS

T1 sequence (P07910 whole entry): as the sequence (P07910 whole entry S115D) above, with D115S counted along it

AUCUCUUGGCUAUCCCUCUUGCUUCUCCAG (ssRNA) [eIF5A intron 5 3' splice site RNA]: the binding result in series [1] is recorded as “binds”.

For UUUUUUUUUUUUUUUUUUUUUUUUUUUUUUUUUUUUUUUUUUUUU (ssRNA) [poly-U 45 nt], the binding result in series [2] and in series [3] was “binds” throughout.

As to ACCCCCUGCACACUUACCCAAUCCUUUUAG (ssRNA) [RPL10 intron 6 3' splice site RNA], the binding result in series [1] was “binds”.
